Assay results as given in patent US7229755 (Dana-Farber, dated 2007).

Tests used:
[1] = biological target: (Gal4 binding domain)-hMsh2 fusion (pAS1-hMSH2) (human, UniProt P04386 1-147 (Saccharomyces cerevisiae entry), limits assumed); test: cell-based or functional assay
[2] = biological target: T1, hMsh2 protein with a hexa-HIS and factor Xa leader peptide at the N-terminus (overproduced in E. coli from a … (human, UniProt P43246 1-934)); test: gel-shift (supershift) of hMsh2 bound to a 32P-labelled 39-bp GT-mismatch duplex, with E. coli extract containing hMlh1
T1 construct: The leader peptide was not cleaved; The preparation was more than 50% pure; also called human Msh2; MSH2hu protein; not shown: hexa-HIS and factor Xa leader peptide from the pET vector derivative (Invitrogen)
Description: Mismatch binding by human mismatch repair proteins was studied using a gel-shift binding assay. Briefly, protein fractions are incubated with a ^32P-labelled 39-basepair oligonucleotide duplex that was designed to minimize intramolecular interactions (Oligo Designs), and also contained a GT mismatch at position 20. Incubations were done for 10 minutes at 23° C. in 20 mM Tris (pH 7.5), 50 mM KCl, 1 mM DTT, and 0.1 mM EDTA to allow formation of protein-DNA complexes. Several different competitor nucleic acids (e.g. poly dI-dC, an otherwise identical 39-mer that lacked the mismatch, and/or unlabelled mismatched substrate) were added to minimize nonspecific binding. Reactions were then loaded onto a 6% acrylamide gel in TBE, and were electrophoresed.

Binder | β-galactosidase activity (GAL4 promoter-β-galactosidase reporter, yeast Two-Hybrid) [1] | binding result [2]
(Gal4 activation domain)-hMlh1 fusion (pACTII-hMLH1) (other, not shown: large carriers) MSFVAGVIRRLDETVVNRIAAGEVIQRPANAIKEMIENCLDAKSTSIQVIVKEGGLKLIQIQDNGTGIRKEDLDIVCERFTTSKLQSFEDLASISTYGFRGEALASISHVAHVTITTKTADGKCAYRASYSDGKLKAPPKPCAGNQGTQITVEDLFYNIATRRKALKNPSEEYGKILEVVGRYSVHNAGISFSVKKQGETVADVRTLPNASTVDNIRSIFGNAVSRELIEIGCEDKTLAFKMNGYISNANYSVKKCIFLLFINHRLVESTSLRKAIETVYAAYLPKNTHPFLYLSLEISPQNVDVNVHPTKHEVHFLHEESILERVQQHIESKLLGSNSSRMYFTQTLLPGLAGPSGEMVKSTTSLTSSSTSGSSDKVYAHQMVRTDSREQKLDAFLQPLSKPLSSQPQAIVTEDKTDISSGRARQQDEEMLELPAPAEVAAKNQSLEGDTTKGTSEMSEKRGPTSSNPRKRHREDSDVEMVEDDSRKEMTAACTPRRRIINLTSVLSLQEEINEQGHEVLREMLHNHSFVGCVNPQWALAQHQTKLYLLNTTKLSEELFYQILIYDFANFGVLRLSEPAPLFDLAMLALDSPESGWTEEDGPKEGLAEYIVEFLKKKAEMLADYFSLEIDEEGNLIGLPLLIDNYVPPLEGLPIFILRLATEVNWDEEKECFESLSKECAMFYSIRKQYISEESTLSGQQSEVPGSIPNSWKWTVEHIVYKALRSHILPPKHFTEDGNILQLANLPDLYKVFERC | ~100 fold | 
hMlh1 protein overproduced in E. coli from pET-hMLH1 constructs (used as clarified bacterial extract) (other, The protein was not purified and was used as clarified bacterial extract; also called hMLH1 gene product) MSFVAGVIRRLDETVVNRIAAGEVIQRPANAIKEMIENCLDAKSTSIQVIVKEGGLKLIQIQDNGTGIRKEDLDIVCERFTTSKLQSFEDLASISTYGFRGEALASISHVAHVTITTKTADGKCAYRASYSDGKLKAPPKPCAGNQGTQITVEDLFYNIATRRKALKNPSEEYGKILEVVGRYSVHNAGISFSVKKQGETVADVRTLPNASTVDNIRSIFGNAVSRELIEIGCEDKTLAFKMNGYISNANYSVKKCIFLLFINHRLVESTSLRKAIETVYAAYLPKNTHPFLYLSLEISPQNVDVNVHPTKHEVHFLHEESILERVQQHIESKLLGSNSSRMYFTQTLLPGLAGPSGEMVKSTTSLTSSSTSGSSDKVYAHQMVRTDSREQKLDAFLQPLSKPLSSQPQAIVTEDKTDISSGRARQQDEEMLELPAPAEVAAKNQSLEGDTTKGTSEMSEKRGPTSSNPRKRHREDSDVEMVEDDSRKEMTAACTPRRRIINLTSVLSLQEEINEQGHEVLREMLHNHSFVGCVNPQWALAQHQTKLYLLNTTKLSEELFYQILIYDFANFGVLRLSEPAPLFDLAMLALDSPESGWTEEDGPKEGLAEYIVEFLKKKAEMLADYFSLEIDEEGNLIGLPLLIDNYVPPLEGLPIFILRLATEVNWDEEKECFESLSKECAMFYSIRKQYISEESTLSGQQSEVPGSIPNSWKWTVEHIVYKALRSHILPPKHFTEDGNILQLANLPDLYKVFERC |  | binds
